From IntAct's records for PubMed 31515488

B1: Syntenin-1 (Homo sapiens), O00560 (parent)
chain: MSLYPSLEDLKVDKVIQAQTAFSANPANPAILSEASAPIPHDGNLYPRLYPELSQYMGLSLNEEEIRANVAVVSGAPLQGQLVARPSSINYMVAPVTGNDVGIRRAEIKQGIREVILCKDQDGKIGLRLKSIDNGIFVQLVQANSPASLVGLRFGDQVLQINGENCAGWSSDKAHKVLKQAFGEKITMTIRDRPFERTITMHKDSTGHVGFIFKNGKITSIVKDSSAARNGLLTEHNICEINGQNVIGLKDSQIADILSTSGTVVTITIMPAFIFEHIIKRMAPSIMKSLMDHTIPEV
B2: Pseudouridylate synthase PUS7L (Homo sapiens), Q9H0K6 (parent)
chain: MEEDTDYRIRFSSLCFFNDHVGFHGTIKSSPSDFIVIEIDEQGQLVNKTIDEPIFKISEIQLEPNNFPKKPKLDLQNLSLEDGRNQEVHTLIKYTDGDQNHQSGSEKEDTIVDGTSKCEEKADVLSSFLDEKTHELLNNFACDVREKWLSKTELIGLPPEFSIGRILDKNQRASLHSAIRQKFPFLVTVGKNSEIVVKPNLEYKELCHLVSEEEAFDFFKYLDAKKENSKFTFKPDTNKDHRKAVHHFVNKKFGNLVETKSFSKMNCSAGNPNVVVTVRFREKAHKRGKRPLSECQEGKVIYTAFTLRKENLEMFEAIGFLAIKLGVIPSDFSYAGLKDKKAITYQAMVVRKVTPERLKNIEKEIEKKRMNVFNIRSVDDSLRLGQLKGNHFDIVIRNLKKQINDSANLRERIMEAIENVKKKGFVNYYGPQRFGKGRKVHTDQIGLALLKNEMMKAIKLFLTPEDLDDPVNRAKKYFLQTEDAKGTLSLMPEFKVRERALLEALHRFGMTEEGCIQAWFSLPHSMRIFYVHAYTSKIWNEAVSYRLETYGARVVQGDLVCLDEDIDDENFPNSKIHLVTEEEGSANMYAIHQVVLPVLGYNIQYPKNKVGQWYHDILSRDGLQTCRFKVPTLKLNIPGCYRQILKHPCNLSYQLMEDHDIDVKTKGSHIDETALSLLISFDLDASCYATVCLKEIMKHDV
partner: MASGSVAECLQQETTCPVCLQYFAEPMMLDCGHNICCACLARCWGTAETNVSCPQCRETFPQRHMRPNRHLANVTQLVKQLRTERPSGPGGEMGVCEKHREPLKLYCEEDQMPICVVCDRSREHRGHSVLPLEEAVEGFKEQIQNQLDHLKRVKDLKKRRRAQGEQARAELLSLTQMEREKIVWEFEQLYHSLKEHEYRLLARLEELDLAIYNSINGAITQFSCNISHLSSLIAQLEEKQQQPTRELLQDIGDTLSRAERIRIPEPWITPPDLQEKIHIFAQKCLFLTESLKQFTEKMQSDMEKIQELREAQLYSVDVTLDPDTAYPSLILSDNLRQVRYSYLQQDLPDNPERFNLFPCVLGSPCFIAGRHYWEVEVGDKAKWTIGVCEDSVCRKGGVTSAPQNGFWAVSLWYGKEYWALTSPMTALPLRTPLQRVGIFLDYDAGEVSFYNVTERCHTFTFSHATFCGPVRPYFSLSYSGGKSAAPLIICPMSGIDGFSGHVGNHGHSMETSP
B3: Homeobox protein VENTX (Homo sapiens), O95231 (parent)
chain: MRLSSSPPRGPQQLSSFGSVDWLSQSSCSGPTHTPRPADFSLGSLPGPGQTSGAREPPQAVSIKEAAGSSNLPAPERTMAGLSKEPNTLRAPRVRTAFTMEQVRTLEGVFQHHQYLSPLERKRLAREMQLSEVQIKTWFQNRRMKHKRQMQDPQLHSPFSGSLHAPPAFYSTSSGLANGLQLLCPWAPLSGPQALMLPPGSFWGLCQVAQEALASAGASCCGQPLASHPPTPGRPSLGPALSTGPRGLCAMPQTGDAF
partner: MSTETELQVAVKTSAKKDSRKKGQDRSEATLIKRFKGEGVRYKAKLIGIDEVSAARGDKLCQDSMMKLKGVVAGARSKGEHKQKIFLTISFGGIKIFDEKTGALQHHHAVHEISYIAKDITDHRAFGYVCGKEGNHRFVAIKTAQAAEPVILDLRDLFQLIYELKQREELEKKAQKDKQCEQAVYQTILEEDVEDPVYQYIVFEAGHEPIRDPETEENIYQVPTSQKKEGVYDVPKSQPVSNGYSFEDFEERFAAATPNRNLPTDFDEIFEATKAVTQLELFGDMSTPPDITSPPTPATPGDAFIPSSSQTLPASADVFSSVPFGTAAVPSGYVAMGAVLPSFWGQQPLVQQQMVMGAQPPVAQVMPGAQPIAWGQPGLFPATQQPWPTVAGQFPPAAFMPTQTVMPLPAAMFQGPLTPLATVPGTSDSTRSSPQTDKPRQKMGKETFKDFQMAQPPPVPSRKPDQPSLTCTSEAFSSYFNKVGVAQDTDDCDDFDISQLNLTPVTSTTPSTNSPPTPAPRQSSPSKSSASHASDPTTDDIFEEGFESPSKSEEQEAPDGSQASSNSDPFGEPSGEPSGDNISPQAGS
B4: cGMP-dependent protein kinase 1 (Homo sapiens), Q13976 (parent)
chain: MSELEEDFAKILMLKEERIKELEKRLSEKEEEIQELKRKLHKCQSVLPVPSTHIGPRTTRAQGISAEPQTYRSFHDLRQAFRKFTKSERSKDLIKEAILDNDFMKNLELSQIQEIVDCMYPVEYGKDSCIIKEGDVGSLVYVMEDGKVEVTKEGVKLCTMGPGKVFGELAILYNCTRTATVKTLVNVKLWAIDRQCFQTIMMRTGLIKHTEYMEFLKSVPTFQSLPEEILSKLADVLEETHYENGEYIIRQGARGDTFFIISKGTVNVTREDSPSEDPVFLRTLGKGDWFGEKALQGEDVRTANVIAAEAVTCLVIDRDSFKHLIGGLDDVSNKAYEDAEAKAKYEAEAAFFANLKLSDFNIIDTLGVGGFGRVELVQLKSEESKTFAMKILKKRHIVDTRQQEHIRSEKQIMQGAHSDFIVRLYRTFKDSKYLYMLMEACLGGELWTILRDRGSFEDSTTRFYTACVVEAFAYLHSKGIIYRDLKPENLILDHRGYAKLVDFGFAKKIGFGKKTWTFCGTPEYVAPEIILNKGHDISADYWSLGILMYELLTGSPPFSGPDPMKTYNIILRGIDMIEFPKKIAKNAANLIKKLCRDNPSERLGNLKNGVKDIQKHKWFEGFNWEGLRKGTLTPPIIPSVASPTDTSNFDSFPEDNDEPPPDDNSGWDIDF
B5: Origin recognition complex subunit 6 (Homo sapiens), Q9Y5N6 (parent)
chain: MGSELIGRLAPRLGLAEPDMLRKAEEYLRLSRVKCVGLSARTTETSSAVMCLDLAASWMKCPLDRAYLIKLSGLNKETYQSCLKSFECLLGLNSNIGIRDLAVQFSCIEAVNMASKILKSYESSLPQTQQVDLDLSRPLFTSAALLSACKILKLKVDKNKMVATSGVKKAIFDRLCKQLEKIGQQVDREPGDVATPPRKRKKIVVEAPAKEMEKVEEMPHKPQKDEDLTQDYEEWKRKILENAASAQKATAE
partner: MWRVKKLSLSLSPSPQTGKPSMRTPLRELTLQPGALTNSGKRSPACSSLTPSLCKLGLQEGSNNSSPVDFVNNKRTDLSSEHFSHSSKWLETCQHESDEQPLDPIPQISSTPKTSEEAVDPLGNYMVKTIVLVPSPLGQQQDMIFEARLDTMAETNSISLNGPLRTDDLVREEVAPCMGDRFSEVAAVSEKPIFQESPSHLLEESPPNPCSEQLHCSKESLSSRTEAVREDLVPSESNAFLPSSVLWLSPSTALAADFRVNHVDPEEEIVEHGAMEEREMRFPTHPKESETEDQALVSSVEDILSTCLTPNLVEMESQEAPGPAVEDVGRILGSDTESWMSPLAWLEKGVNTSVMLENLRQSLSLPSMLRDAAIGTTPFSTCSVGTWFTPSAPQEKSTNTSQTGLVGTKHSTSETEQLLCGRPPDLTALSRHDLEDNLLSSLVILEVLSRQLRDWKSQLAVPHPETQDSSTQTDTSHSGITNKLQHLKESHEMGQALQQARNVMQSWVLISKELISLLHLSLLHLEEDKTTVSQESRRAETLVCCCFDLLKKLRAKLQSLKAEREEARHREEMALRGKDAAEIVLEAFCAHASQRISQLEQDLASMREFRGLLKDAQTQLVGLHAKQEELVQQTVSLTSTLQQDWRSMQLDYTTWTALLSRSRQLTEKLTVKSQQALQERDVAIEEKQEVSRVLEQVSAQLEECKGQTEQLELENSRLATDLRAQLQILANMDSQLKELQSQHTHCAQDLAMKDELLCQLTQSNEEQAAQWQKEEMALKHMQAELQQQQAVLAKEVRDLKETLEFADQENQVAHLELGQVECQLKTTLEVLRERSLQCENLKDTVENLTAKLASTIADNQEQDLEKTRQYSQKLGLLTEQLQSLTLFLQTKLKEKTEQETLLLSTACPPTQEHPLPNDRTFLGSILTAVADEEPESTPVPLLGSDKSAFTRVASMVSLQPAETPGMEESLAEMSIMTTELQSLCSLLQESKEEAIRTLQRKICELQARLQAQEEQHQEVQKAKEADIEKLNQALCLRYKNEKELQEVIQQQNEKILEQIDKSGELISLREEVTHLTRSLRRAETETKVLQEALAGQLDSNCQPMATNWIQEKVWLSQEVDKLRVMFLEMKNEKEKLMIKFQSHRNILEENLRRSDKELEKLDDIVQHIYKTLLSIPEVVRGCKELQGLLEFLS
B6: Mothers against decapentaplegic homolog 4 (Homo sapiens), Q13485 (parent)
chain: MDNMSITNTPTSNDACLSIVHSLMCHRQGGESETFAKRAIESLVKKLKEKKDELDSLITAITTNGAHPSKCVTIQRTLDGRLQVAGRKGFPHVIYARLWRWPDLHKNELKHVKYCQYAFDLKCDSVCVNPYHYERVVSPGIDLSGLTLQSNAPSSMMVKDEYVHDFEGQPSLSTEGHSIQTIQHPPSNRASTETYSTPALLAPSESNATSTANFPNIPVASTSQPASILGGSHSEGLLQIASGPQPGQQQNGFTGQPATYHHNSTTTWTGSRTAPYTPNLPHHQNGHLQHHPPMPPHPGHYWPVHNELAFQPPISNHPAPEYWCSIAYFEMDVQVGETFKVPSSCPIVTVDGYVDPSGGDRFCLGQLSNVHRTEAIERARLHIGKGVQLECKGEGDVWVRCLSDHAVFVQSYYLDREAGRAPGDAVHKIYPSAYIKVFDLRQCHRQMQQQAATAQAAAAAQAAAVAGNIPGPGSVGGIAPAISLSAAAGIGVDDLRRLCILRMSFVKGWGPDYPRQSIKETPCWIEIHLHRALQLLDEVLHTMPIADPQPLD

Variants of: B1
Conditions: with cryaa_human CRYAA

effect of a mutation on the interaction | Variant
with no effect | K124R

Variants of: B1
Conditions: with cox41_human COX4I1, P13073
cox41_human COX4I1, P13073, sequence (P13073 whole entry): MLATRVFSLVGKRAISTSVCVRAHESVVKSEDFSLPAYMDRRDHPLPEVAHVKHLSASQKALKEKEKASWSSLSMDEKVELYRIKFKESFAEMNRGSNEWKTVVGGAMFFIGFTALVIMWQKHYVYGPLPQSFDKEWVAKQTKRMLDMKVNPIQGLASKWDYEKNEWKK

effect of a mutation on the interaction | Variant
with no effect | K124R

Variants of: B1
Conditions: with frih_human FTH1, P02794

effect of a mutation on the interaction | Variant
with no effect | K124R

Variants of: B2
Conditions: with tri27_human TRIM27, P14373

effect of a mutation on the interaction | Variant
disrupting interaction strength | R527C
with no effect | I50V

Variants of: B3
Conditions: with dab1_human DAB1, O75553

effect of a mutation on the interaction | Variant
with no effect | M251V
with no effect | L42P
disrupting interaction strength | A226E

Variants of: B4
Conditions: with rbtn2_human LMO2, P25791
rbtn2_human LMO2, P25791, sequence (P25791 whole entry): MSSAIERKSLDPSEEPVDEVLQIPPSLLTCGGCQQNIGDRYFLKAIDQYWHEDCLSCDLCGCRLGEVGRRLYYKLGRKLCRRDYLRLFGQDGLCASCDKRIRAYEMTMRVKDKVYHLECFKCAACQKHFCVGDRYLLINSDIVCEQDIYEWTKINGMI

effect of a mutation on the interaction | Variant
with no effect | N267S

Variants of: B4
Conditions: with zn646_human ZNF646, O15015
zn646_human ZNF646, O15015, sequence (O15015 whole entry): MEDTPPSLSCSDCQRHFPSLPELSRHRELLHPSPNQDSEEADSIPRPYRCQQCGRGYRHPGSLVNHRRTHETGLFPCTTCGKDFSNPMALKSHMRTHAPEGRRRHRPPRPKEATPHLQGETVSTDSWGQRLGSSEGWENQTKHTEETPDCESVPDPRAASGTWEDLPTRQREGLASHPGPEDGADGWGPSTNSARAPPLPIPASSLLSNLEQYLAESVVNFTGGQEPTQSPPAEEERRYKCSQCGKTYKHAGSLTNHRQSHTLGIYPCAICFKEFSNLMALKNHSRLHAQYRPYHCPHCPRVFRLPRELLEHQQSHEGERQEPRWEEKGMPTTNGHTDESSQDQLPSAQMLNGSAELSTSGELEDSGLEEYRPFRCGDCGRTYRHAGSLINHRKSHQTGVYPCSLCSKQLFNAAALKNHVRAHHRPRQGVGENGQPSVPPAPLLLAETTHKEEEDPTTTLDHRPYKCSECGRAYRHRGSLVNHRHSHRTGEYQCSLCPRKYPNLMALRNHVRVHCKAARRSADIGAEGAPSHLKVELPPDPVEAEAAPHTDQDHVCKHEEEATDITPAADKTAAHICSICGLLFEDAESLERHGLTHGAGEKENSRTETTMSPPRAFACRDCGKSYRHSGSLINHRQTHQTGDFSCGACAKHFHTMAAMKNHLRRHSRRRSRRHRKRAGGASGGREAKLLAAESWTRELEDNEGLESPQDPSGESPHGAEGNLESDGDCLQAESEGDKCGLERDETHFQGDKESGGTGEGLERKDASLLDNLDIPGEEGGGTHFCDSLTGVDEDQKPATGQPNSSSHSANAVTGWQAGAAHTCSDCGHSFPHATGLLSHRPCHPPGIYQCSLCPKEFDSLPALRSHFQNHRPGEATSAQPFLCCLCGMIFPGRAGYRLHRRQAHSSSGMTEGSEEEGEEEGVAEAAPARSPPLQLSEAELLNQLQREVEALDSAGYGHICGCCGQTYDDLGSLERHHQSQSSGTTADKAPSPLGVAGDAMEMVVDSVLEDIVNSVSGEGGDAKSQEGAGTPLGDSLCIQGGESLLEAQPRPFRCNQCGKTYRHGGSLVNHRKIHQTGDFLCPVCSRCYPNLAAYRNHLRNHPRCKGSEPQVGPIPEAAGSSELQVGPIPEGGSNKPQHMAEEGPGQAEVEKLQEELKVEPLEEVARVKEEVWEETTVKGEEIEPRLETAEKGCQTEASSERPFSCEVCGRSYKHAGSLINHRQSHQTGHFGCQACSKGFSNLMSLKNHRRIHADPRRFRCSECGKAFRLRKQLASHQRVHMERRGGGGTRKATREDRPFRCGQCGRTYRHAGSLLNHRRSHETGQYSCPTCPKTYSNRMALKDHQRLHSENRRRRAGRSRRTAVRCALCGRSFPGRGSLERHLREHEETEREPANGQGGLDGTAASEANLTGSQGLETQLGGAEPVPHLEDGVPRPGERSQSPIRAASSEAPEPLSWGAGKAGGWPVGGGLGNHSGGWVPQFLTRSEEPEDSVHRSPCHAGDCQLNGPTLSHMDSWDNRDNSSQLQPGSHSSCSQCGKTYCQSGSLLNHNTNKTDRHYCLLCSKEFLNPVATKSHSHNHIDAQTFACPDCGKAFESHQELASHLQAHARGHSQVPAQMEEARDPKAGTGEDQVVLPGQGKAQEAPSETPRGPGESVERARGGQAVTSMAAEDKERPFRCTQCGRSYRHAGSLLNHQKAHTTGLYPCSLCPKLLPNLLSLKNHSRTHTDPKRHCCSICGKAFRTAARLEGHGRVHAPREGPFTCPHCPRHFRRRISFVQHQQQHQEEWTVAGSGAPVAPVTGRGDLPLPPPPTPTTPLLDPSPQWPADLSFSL

effect of a mutation on the interaction | Variant
with no effect | N267S

Variants of: B5
Conditions: with spag5_human SPAG5, Q96R06

effect of a mutation on the interaction | Variant
with no effect | K201N

Variants of: B6
Conditions: with ews_human EWSR1, Q01844
ews_human EWSR1, Q01844, sequence (Q01844 whole entry): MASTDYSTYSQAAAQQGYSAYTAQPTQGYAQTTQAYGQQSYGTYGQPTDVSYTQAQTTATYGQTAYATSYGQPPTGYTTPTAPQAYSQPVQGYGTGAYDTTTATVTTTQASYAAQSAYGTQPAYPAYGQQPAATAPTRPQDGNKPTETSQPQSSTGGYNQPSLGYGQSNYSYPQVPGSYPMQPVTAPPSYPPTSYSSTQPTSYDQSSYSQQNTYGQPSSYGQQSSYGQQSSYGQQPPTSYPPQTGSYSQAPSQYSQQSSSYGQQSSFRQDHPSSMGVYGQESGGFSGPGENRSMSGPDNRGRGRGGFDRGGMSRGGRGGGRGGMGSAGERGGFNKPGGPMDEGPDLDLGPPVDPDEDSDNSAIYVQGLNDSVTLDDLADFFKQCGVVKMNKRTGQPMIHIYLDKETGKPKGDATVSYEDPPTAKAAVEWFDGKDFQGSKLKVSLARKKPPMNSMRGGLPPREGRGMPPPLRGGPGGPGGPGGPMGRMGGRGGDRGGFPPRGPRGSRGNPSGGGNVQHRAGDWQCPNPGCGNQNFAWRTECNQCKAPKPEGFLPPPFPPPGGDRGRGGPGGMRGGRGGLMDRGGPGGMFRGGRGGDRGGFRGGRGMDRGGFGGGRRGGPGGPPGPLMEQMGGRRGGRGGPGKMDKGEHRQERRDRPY

effect of a mutation on the interaction | Variant
with no effect | R531W

Variants of: B6
Conditions: with smad3_human SMAD3, P84022
smad3_human SMAD3, P84022, sequence (P84022 whole entry, looked up): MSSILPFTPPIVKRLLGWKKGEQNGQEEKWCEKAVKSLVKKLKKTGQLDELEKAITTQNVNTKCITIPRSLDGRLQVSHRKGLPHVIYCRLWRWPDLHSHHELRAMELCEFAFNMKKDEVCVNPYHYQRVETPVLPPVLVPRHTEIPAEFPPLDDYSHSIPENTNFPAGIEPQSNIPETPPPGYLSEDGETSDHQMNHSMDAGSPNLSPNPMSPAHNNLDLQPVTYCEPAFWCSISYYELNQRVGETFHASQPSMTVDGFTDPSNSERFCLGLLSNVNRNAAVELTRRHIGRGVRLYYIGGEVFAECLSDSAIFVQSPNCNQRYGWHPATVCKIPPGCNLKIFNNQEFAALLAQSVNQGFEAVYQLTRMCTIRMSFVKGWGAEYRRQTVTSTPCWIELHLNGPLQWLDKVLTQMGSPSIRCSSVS

effect of a mutation on the interaction | Variant
disrupting interaction strength | R531W
